{
  "source": "patent US20260174875A1",
  "about": "(Novo Nordisk A/S, priority 2023, published 2026)",
  "assay_in_all_cases": "cell-based or functional assay",
  "key": {"human GLP-1 receptor [1]": {"target": "T1, human GLP-1 receptor (human, UniProt P43220 24-463)"}, "human GIP receptor [2]": {"target": "T2, human GIP receptor (human, UniProt P48546 22-466)", "T2 sequence (looked up)": "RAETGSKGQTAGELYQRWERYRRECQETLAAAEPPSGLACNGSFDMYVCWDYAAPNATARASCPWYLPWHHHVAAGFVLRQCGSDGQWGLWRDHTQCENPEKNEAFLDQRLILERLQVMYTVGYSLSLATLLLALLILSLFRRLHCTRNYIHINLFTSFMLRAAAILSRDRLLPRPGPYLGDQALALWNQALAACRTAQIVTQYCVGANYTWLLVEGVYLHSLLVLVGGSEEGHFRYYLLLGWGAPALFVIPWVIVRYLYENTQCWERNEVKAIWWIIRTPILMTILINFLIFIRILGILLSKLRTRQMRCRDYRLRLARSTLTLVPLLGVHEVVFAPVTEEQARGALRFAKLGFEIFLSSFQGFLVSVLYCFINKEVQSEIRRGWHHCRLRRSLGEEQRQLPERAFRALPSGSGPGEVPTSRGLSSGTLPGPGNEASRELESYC"}, "[3]": {"target": "T3, human amylin-3(a) receptor (human, UniProt P30988 25-474; O60896 24-148)", "T3 sequence (looked up) 1": "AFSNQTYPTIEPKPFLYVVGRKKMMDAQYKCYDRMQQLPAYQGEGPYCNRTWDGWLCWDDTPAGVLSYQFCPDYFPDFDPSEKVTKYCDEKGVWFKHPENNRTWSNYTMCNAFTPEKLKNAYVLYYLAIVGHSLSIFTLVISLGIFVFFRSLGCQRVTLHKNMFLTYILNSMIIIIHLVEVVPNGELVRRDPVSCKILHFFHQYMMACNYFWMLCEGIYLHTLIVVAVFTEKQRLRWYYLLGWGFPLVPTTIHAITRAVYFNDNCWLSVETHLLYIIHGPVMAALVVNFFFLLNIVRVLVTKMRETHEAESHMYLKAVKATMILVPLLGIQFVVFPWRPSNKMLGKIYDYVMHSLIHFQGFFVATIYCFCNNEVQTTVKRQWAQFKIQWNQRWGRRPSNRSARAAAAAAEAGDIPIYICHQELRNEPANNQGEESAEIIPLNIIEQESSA", "T3 sequence (looked up) 2": "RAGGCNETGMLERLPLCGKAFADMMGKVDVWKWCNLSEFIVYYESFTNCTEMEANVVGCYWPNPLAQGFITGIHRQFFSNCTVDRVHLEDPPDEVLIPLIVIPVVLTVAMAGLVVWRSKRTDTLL"}, "human GLP-1 receptor [4]": {"target": "T1, human GLP-1 receptor", "remark": "listed apart in the source"}, "human GIP receptor [5]": {"target": "T2, human GIP receptor", "remark": "listed apart in the source"}, "[6]": {"target": "T3, human amylin-3(a) receptor", "remark": "listed apart in the source"}},
  "note": "Numbered stars: 1 amine (or outer) side, 2 acyl side, 3 side chain; on linkers, the order of the positions; unused ones are H or OH. Square brackets hold non-standard residues; d marks the D form. Side chains are listed from the residue outwards. * marks the point of attachment. C20 diacid = O=C(O)CCCCCCCCCCCCCCCCCCC(=O)*; C18 diacid = O=C(O)CCCCCCCCCCCCCCCCC(=O)*; C16 diacid = O=C(O)CCCCCCCCCCCCCCC(=O)*; γGlu = O=C(O)[C@H](CCC(=O)[*:2])N[*:1]; Chem. 28 = not defined here; AEEA = NCCOCCOCC(=O)O; Aib = CC(C)(N)C(=O)O",
  "data": [
    {"binder": "Compound 15 (peptide) peptide: H[Aib]HGTFTSDYSILLEEQAAREFIEWLLAGGPSK([AEEA-AEEA-γGlu-C18 diacid])GAPPPSGGGEASELSTAALGRLSAELHELATLPRTETGSGSP-NH2", "values": [
      {"measurement": "hGLP-1R Potency, no HSA, EC50 [pM]", "setting": "human GLP-1 receptor [1]", "value": 1.41, "unit": "pM"},
      {"measurement": "hGIPR Potency, no HSA, EC50 [pM]", "setting": "human GIP receptor [2]", "value": 3.2, "unit": "pM"},
      {"measurement": "hAMYR3 Potency, no HSA, EC50 [pM]", "setting": "[3]", "value": 5.01, "unit": "pM"},
      {"measurement": "hGLP-1R Potency, 1% HSA, EC50 [pM]", "setting": "human GLP-1 receptor [4]", "value": 103, "unit": "pM"},
      {"measurement": "hGIPR Potency, 1% HSA, EC50 [pM]", "setting": "human GIP receptor [5]", "value": 356, "unit": "pM"},
      {"measurement": "hAMYR3 Potency, 1% HSA, EC50 [pM]", "setting": "[6]", "value": 82.2, "unit": "pM"}
    ]},
    {"binder": "Compound 16 (peptide) peptide: H[Aib]HGTFTSDYSILLEEQAAREFIEWLLAGGPSK([AEEA-AEEA-γGlu-C20 diacid])GAPPPSGGGEASELSTAALGRLSAELHELATLPRTETGSGSP-NH2", "values": [
      {"measurement": "hGLP-1R Potency, no HSA, EC50 [pM]", "setting": "human GLP-1 receptor [1]", "value": 2.74, "unit": "pM"},
      {"measurement": "hGIPR Potency, no HSA, EC50 [pM]", "setting": "human GIP receptor [2]", "value": 4.27, "unit": "pM"},
      {"measurement": "hAMYR3 Potency, no HSA, EC50 [pM]", "setting": "[3]", "value": 5.7, "unit": "pM"},
      {"measurement": "hGLP-1R Potency, 1% HSA, EC50 [pM]", "setting": "human GLP-1 receptor [4]", "value": 238, "unit": "pM"},
      {"measurement": "hGIPR Potency, 1% HSA, EC50 [pM]", "setting": "human GIP receptor [5]", "value": 485, "unit": "pM"},
      {"measurement": "hAMYR3 Potency, 1% HSA, EC50 [pM]", "setting": "[6]", "value": 166, "unit": "pM"}
    ]},
    {"binder": "Compound 17 (peptide) peptide: H[Aib]HGTFTSDYSILLEEQAAREFIEWLLAGGPSK([AEEA-AEEA-γGlu-C16 diacid])GEASELSTAALGRLSAELHRLATLPRTETGSGSP-NH2", "values": [
      {"measurement": "hGLP-1R Potency, no HSA, EC50 [pM]", "setting": "human GLP-1 receptor [1]", "value": 2.72, "unit": "pM"},
      {"measurement": "hGIPR Potency, no HSA, EC50 [pM]", "setting": "human GIP receptor [2]", "value": 5.04, "unit": "pM"},
      {"measurement": "hAMYR3 Potency, no HSA, EC50 [pM]", "setting": "[3]", "value": 5.13, "unit": "pM"},
      {"measurement": "hGLP-1R Potency, 1% HSA, EC50 [pM]", "setting": "human GLP-1 receptor [4]", "value": 13.1, "unit": "pM"},
      {"measurement": "hGIPR Potency, 1% HSA, EC50 [pM]", "setting": "human GIP receptor [5]", "value": 36.9, "unit": "pM"},
      {"measurement": "hAMYR3 Potency, 1% HSA, EC50 [pM]", "setting": "[6]", "value": 33.6, "unit": "pM"}
    ]},
    {"binder": "Compound 26 (reading uncertain) peptide: Y[Aib]EGTFTSDYSILLEEQAAREFIEWLLAGGPSK(Chem. 28)GEASELSTAALGRLSAELHELATLPRTETGSGSP-NH2", "values": [
      {"measurement": "hGLP-1R Potency, no HSA, EC50 [pM]", "setting": "human GLP-1 receptor [1]", "value": 20.7, "unit": "pM"},
      {"measurement": "hGIPR Potency, no HSA, EC50 [pM]", "setting": "human GIP receptor [2]", "value": 1.75, "unit": "pM"},
      {"measurement": "hAMYR3 Potency, no HSA, EC50 [pM]", "setting": "[3]", "value": 11.8, "unit": "pM"},
      {"measurement": "hGLP-1R Potency, 1% HSA, EC50 [pM]", "setting": "human GLP-1 receptor [4]", "value": 1680, "unit": "pM"},
      {"measurement": "hGIPR Potency, 1% HSA, EC50 [pM]", "setting": "human GIP receptor [5]", "value": 558, "unit": "pM"},
      {"measurement": "hAMYR3 Potency, 1% HSA, EC50 [pM]", "setting": "[6]", "value": 349, "unit": "pM"}
    ]}
  ]
}
